The record followed here is PMC7036032.

For this test, the target named is cleavage stimulation factor (CstF): CstF77-CstF50-CstF64(1-195) (human) (UniProt Q12996). Briefly: SEC. For orientation: SEC sorts molecules by how far they enter the pores of the column.

Broadly, the stoichiometry N is the number of molecules, sites or subunits per partner or assembly. The substance “mammalian polyadenylation specificity factor (mPSF): CPSF160-WDR33(1-572)-CPSF30-Fip1(1-243), Q10570 1-1443; Q9C0J8 1-572; O95639-2 1-244; Q6UN15 1-243” gave a stoichiometry N of 1.
